For one substance, Kd results are on record in paper PMC11882435.

The target of this series is RsmA (Pseudomonas aeruginosa) (UniProt O69078). Kind of series: EMSA. Particulars: Filter binding: 10 mM Tris-HCl pH 7.5, 100 mM KCl, 10 mM MgCl2, 10 mM DTT, 10 ug/mL heparin, RNase inhibitor, 0.5 nM RNA, 37 C 30 min; Hill coefficient 2. (In EMSA bound probe runs differently from free probe, usually more slowly.)
Sequence of RsmA (Pseudomonas aeruginosa) (O69078 whole entry): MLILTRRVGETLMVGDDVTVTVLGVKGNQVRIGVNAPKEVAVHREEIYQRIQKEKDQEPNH

On to rhlI leader, for which the Kd worked out at 0.0209 µM.

The Kd is the free concentration of one partner at which half of the binding sites on the other are occupied at equilibrium, for simple one-to-one binding.
